Values quoted from earlier work, collected in paper PMC5167704.

Molecular target: C4BP SCR6-8 (Homo sapiens) (UniProt P04003)
Sequence of UniProt P04003 (P04003 363-540): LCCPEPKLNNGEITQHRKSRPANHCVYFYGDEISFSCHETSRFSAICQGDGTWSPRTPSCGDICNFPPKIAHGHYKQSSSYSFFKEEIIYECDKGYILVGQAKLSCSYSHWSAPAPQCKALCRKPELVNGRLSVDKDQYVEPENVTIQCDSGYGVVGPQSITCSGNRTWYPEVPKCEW

## Ail (from UniProt Q56957)
  Kd: 0.76 nM
